# Measurements reported in patent publication US20150231240A1, “ANTI-C16ORF54 ANTIBODIES AND METHODS OF USE THEREOF” (priority 2012, published 2015).
# Where a chain is given by its changes, count along the chain named.
# T1: human C16orf54 (Homo sapiens, UniProt Q6UWD8)
# T1 construct: expressed in transfected cells; host or cells: murine sarcoma cells (D42M1-huC16orf54)
# T1 sequence (Q6UWD8 1-224): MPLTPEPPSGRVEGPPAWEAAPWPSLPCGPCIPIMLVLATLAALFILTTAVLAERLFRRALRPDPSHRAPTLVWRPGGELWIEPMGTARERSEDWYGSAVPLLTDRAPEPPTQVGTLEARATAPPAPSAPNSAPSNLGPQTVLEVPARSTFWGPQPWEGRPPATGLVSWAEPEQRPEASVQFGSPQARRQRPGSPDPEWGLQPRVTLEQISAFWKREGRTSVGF
# T2: N-terminal 32 amino acids of huC16orf54 (Homo sapiens, UniProt Q6UWD8)
# T2 sequence (Q6UWD8 1-32 limits assumed): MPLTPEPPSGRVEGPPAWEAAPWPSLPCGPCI
# B1: R29-7-1C: murine anti-C16orf54 monoclonal antibody, IgG2a; VH SEQ ID NO: 8, VL SEQ ID NO: 10 (antibody, V domains shown)
# VH: MRVLILLWLFTAFPGILSDVQLQESGPGLVKPSQSLSLTCTVTGYSITSDYAWNWIRQFPGNKLEWMGYISYSGSIRYNPSLKSRISITRDTSKNQFFLQLNSVTTEDTATYYCAREKYDNYYYAMDYWGQGTSVTVSS
# VL: MDSQAQVLMLLLLWVSGTCGDIVMSQSPSSLAVSVGEKVTLSCKSSQNLLYSTNQKNYLAWYQQKPGQSPKLLIYWASTRESGVPDRFTGSGSGTDFTLTISSVKAEDLAVYYCQQYYSYRTFGGGTKLEIK
# modifications: R29-7-1C heavy chain variable region; R29-7-1C light chain variable region
# B2: R29-67-7A: murine anti-C16orf54 monoclonal antibody, IgG2a; VH SEQ ID NO: 12, VL SEQ ID NO: 14 (antibody, V domains shown)
# VH: B1 VH with S71N, S75R, I76T, K83N, I88L, K94T, K118N, N121Y, Y122E, Y123F
# VL: B1 VL with D2E, L41M, T53S, S119I
# modifications: R29-67-7A heavy chain variable region; R29-67-7A light chain variable region
# Legend:
# human C16orf54 = target: T1, human C16orf54; assay: Flow cytometry reactivity with sarcoma cells expressing human C16orf54 (fold change over isotype); type: binding; details: for binding to human C16orf54 (flow cytometry): sarcoma cells expressing human C16orf54, 10 μg/ml antibody
# Procedure: Anti-C16orf54 antibodies which bound to human C16orf54 were tested for their reactivity with human C16orf54 and their crossreactivity with C16orf54 from cynomolgous monkeys (cyno C16orf54) using flow cytometry. Sarcoma cells transfected with and expressing human C16orf54 or cyno C16orf54 were washed with PBS with 0.1% BSA, incubated with FcX receptor blocking solution (BioLegend) for 15 minutes, incubated with 10 μg/ml of anti-C16orf54 antibody for 1 hour at 4° C., washed twice with PBS with 0.1% BSA, incubated with 20 μg/ml of R-Phycoerythrin-AffiniPure F(ab′)2 Fragment Goat Anti-Mouse IgG, Fcγ Fragment Specific (Jackson ImmunoResearch) for 30 minutes at 4° C., washed twice with PBS with 0.1% BSA, incubated with the viability dye TO-PRO-3 iodide (Life Technologies), and immediately analyzed on a MACSQuant Analyzer instrument (Miltenyi). For each cell line and anti-C16orf54 antibody, a fold change was derived by dividing the median fluorescence intensity for Phycoerythrin in the live cell population for the anti-C16orf54 antibody by the median fluorescence intensity for Phycoerythrin in the live cell population for the IgG isotype control antibody.
# [1] = tested on: KG-1 (acute myeloid leukemia) xenograft; type: in vivo, NOD-SCID mice; details: for tumor growth inhibition (in words) / tumor growth inhibition: KG-1 xenograft; for tumor growth inhibition (in words): compared to control IgG, antibodies weekly; for tumor growth inhibition: treatment initiated at 92 mm^3, HB121 IgG isotype negative control; for TGI (tumor growth inhibition) / Mean (tumor volume): Table 42, KG-1 AML model, NOD-SCID mice, weekly administration; for Mean (tumor volume): in mm³ (unit assumed)
# Procedure: Subcutaneous tumors are generated by injection of 1×10^7 cancer cells in a mixture of PBS (without magnesium or calcium) and BD Matrigel™ (BD Biosciences) at a 1:1 ratio in the right flank of female SCID or nu^−/− mice. The injected total volume per mouse is […] with 50% being Matrigel (BD Biosciences). Mice are randomized once tumors reach a size between 65-200 mm^3. Antibodies are administered weekly, and body weights and tumors are measured once and twice weekly, respectively. Tumor volume is calculated as described (van der Horst et al. (2009) Neoplasia 11: 355-364). As a negative control, mice are injected with either purified mouse IgG or PBS; or a purified monoclonal antibody that recognizes an antigen other than C16orf54.
# Anti-C16orf54 antibodies were tested for their anti-tumor activity in an animal-tumor model. For these studies, the cell line KG-1 (acute myeloid leukemia) was obtained from ATCC and cultured according to the suppliers' protocols. Animals were obtained from Taconic (Hudson, N.Y.). Studies were conducted with anti-C16orf54 antibodies and antibody-drug conjugates (ADCs) of these antibodies.
# In these experiments, 4-6 week-old immunodeficient NOD-SCID female mice were used for the KG-1 tumor model. Mice were subcutaneously injected on the right flank with 6×10^6 viable cells (KG-1) in a mixture of PBS (without magnesium or calcium) and BD Matrigel™ (BD Biosciences). Once the tumor reached a size between 65-200 mm^3 mice were randomized. Anti-C16orf54 antibodies were administered weekly, and bodyweights and tumors were measured once and twice weekly, respectively. Tumor volume was calculated as described (van der Horst et al., supra). Experiments were performed on groups of at least eight animals per experimental point.
# Statistical significance between treatment and control groups was calculated using the Graphpad Prism® software package and applying Student's two-tailed t-test. A p-value of less than 0.05 was considered significant.
# [2] = tested on: human erythroid and myeloid progenitors (normal human bone marrow); assay: Colony forming unit (CFU) progenitor cell assays; type: cell-based; details: for BFU-E / CFU-E / CFU-GEMM / CFU-GM / Total CFC / Total Erythroid: colonies after 14 days; for direct effect on colony number or colony size of bone marrow progenitors: 0.032-100 μg/ml added directly into the methylcellulose matrix, 14 days; for indirect effect on colony number or colony size of progenitors: 0.032-100 μg/ml, 24 hours liquid culture, then methylcellulose matrix
# Procedure: Colony forming unit (CFU) assays were performed to establish if there is binding of anti-C16orf54 antibodies to various progenitor cells including: CFU-E: colony forming unit erythroid (erythroid colony forming cells); BFU-E: burst forming unit erythroid (earliest known erythroid precursor cells); CFU-GM: colony forming unit granulocyte/macrophage (granulocyte-macrophage colony forming cells); and CFU-GEMM: colony forming unit granulocyte, erythrocyte, monocyte/macrophage, megakaryocyte (most primitive colony-forming cells). […] Clogenic progenitors of the human erythroid and myeloid lineages were set up in methylcellulose-based medium. All test antibodies and reagents were added to the medium at indicated concentrations. Triplicate cultures were initiated for each condition. Following 14 days in culture myeloid and erythroid colonies were assessed microscopically and scored. For these assays, anti-C16orf54 antibodies were evaluated for their direct and indirect effects on human erythroid and myeloid progenitor proliferation. […] Indirect effects on progenitors were assessed by incubating the cells with these antibodies in a liquid culture for 24 hours and subsequent culture of these cells in the methylcellulose matrix.
# [3] = target: T2, N-terminal 32 amino acids of huC16orf54; assay: Off-rate screen of hybridoma supernatants on OctetQK384 (biolayer interferometry); type: binding; details: calculated off-rate
# Procedure: Eight anti-huC16orf54 monoclonal antibodies were further screened for binding and subsequent off-rate analysis using the OctetQK384® sytem (ForteBio). Hybridoma supernatants were screened for association to and dissocation from streptavidin sensors coated with the N-terminal 32 amino acids of huC16orf54 coupled to biotin, and the calculated offrates (kdis) are shown in Table 31. Cloned hybridomas with […] off-rates were carried forward for antibody purification.
Molecule,binding to C16orf54-expressing cells (dual binders) (human C16orf54),binding to human C16orf54 (flow cytometry) (human C16orf54),tumor growth inhibition (in words) [1],tumor growth inhibition [1] [%],TGI (tumor growth inhibition) [1] [%],Mean (tumor volume) [1],BFU-E ([2]; 0.032 μg/ml),CFU-E ([2]; 0.032 μg/ml),CFU-GM ([2]; 0.032 μg/ml),Total CFC ([2]; 0.032 μg/ml),Total Erythroid ([2]; 0.032 μg/ml),BFU-E ([2]; 0.8 μg/ml),CFU-E ([2]; 0.8 μg/ml),CFU-GM ([2]; 0.8 μg/ml),Total CFC ([2]; 0.8 μg/ml),Total Erythroid ([2]; 0.8 μg/ml),BFU-E ([2]; 4 μg/ml),CFU-E ([2]; 4 μg/ml),CFU-GM ([2]; 4 μg/ml),Total CFC ([2]; 4 μg/ml),further results
B1,bind to C16orf54-expressing cells,bind human C16orf54,inhibitors of tumor growth,69,−8,2813.4,31 +/− 2,8 +/− 2,45 +/− 3,83 +/− 4,38 +/− 4,31 +/− 2,8 +/− 2,42 +/− 4,82 +/− 3,39 +/− 4,32 +/− 2,7 +/− 2,44 +/− 4,82 +/− 6,CFU-GEMM ([2]; 0.032 μg/ml): 1 +/− 1; CFU-GEMM ([2]; 0.8 μg/ml): 1 +/− 1; Total Erythroid ([2]; 4 μg/ml): 38 +/− 3; BFU-E ([2]; 20 μg/ml): 28 +/− 5; CFU-E ([2]; 20 μg/ml): 8 +/− 2; CFU-GEMM ([2]; 20 μg/ml): 1 +/− 1; CFU-GM ([2]; 20 μg/ml): 40 +/− 5; Total CFC ([2]; 20 μg/ml): 76 +/− 8; Total Erythroid ([2]; 20 μg/ml): 36 +/− 4; BFU-E ([2]; 100 μg/ml): 30 +/− 3; CFU-E ([2]; 100 μg/ml): 8 +/− 3; CFU-GEMM ([2]; 100 μg/ml): 1 +/− 1; CFU-GM ([2]; 100 μg/ml): 44 +/− 4; Total CFC ([2]; 100 μg/ml): 82 +/− 4; Total Erythroid ([2]; 100 μg/ml): 38 +/− 4; direct effect on colony number or colony size of bone marrow progenitors [2]: no effect on colony number or colony size of bone marrow progenitors; indirect effect on colony number or colony size of progenitors [2]: no effect on colony number or colony size; kdis [3]: 0.0102 s⁻¹
B2,bind to C16orf54-expressing cells,bind human C16orf54,inhibitors of tumor growth,70,6,3221.4,28 +/− 2,7 +/− 2,39 +/− 3,74 +/− 4,35 +/− 1,32 +/− 3,7 +/− 2,43 +/− 5,81 +/− 6,38 +/− 5,30 +/− 2,9 +/− 2,43 +/− 2,81 +/− 1,Total Erythroid ([2]; 4 μg/ml): 39 +/− 3; BFU-E ([2]; 20 μg/ml): 33 +/− 3; CFU-E ([2]; 20 μg/ml): 6 +/− 2; CFU-GEMM ([2]; 20 μg/ml): 1 +/− 1; CFU-GM ([2]; 20 μg/ml): 40 +/− 1; Total CFC ([2]; 20 μg/ml): 79 +/− 4; Total Erythroid ([2]; 20 μg/ml): 39 +/− 3; BFU-E ([2]; 100 μg/ml): 32 +/− 2; CFU-E ([2]; 100 μg/ml): 7 +/− 2; CFU-GM ([2]; 100 μg/ml): 43 +/− 6; Total CFC ([2]; 100 μg/ml): 83 +/− 5; Total Erythroid ([2]; 100 μg/ml): 39 +/− 3; direct effect on colony number or colony size of bone marrow progenitors [2]: no effect on colony number or colony size of bone marrow progenitors; indirect effect on colony number or colony size of progenitors [2]: no effect on colony number or colony size; kdis [3]: 0.00845 s⁻¹
